# Source: paper PMC9482650, “Quantitative fragmentomics allow affinity mapping of interactomes” (Nature Communications, 2022)
# T1: APBA3_1, O96018
# T1 sequence (O96018 389-490, limits assumed, looked up): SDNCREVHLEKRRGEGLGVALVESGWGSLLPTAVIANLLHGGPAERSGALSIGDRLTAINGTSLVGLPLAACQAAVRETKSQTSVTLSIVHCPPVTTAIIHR
# T2: CARD11, Q9BXL7
# T2 sequence (Q9BXL7 662-765, limits assumed, looked up): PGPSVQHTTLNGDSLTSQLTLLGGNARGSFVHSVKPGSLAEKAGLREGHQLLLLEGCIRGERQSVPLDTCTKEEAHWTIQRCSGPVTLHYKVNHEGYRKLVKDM
# T3: DVL3, Q92997
# T3 sequence (Q92997 244-331, limits assumed, looked up): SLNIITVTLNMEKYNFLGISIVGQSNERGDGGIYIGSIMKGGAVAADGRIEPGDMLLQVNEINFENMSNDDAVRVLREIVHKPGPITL
# T4: GRIP1_5, Q9Y3R0
# T4 sequence (Q9Y3R0 568-668, limits assumed, looked up): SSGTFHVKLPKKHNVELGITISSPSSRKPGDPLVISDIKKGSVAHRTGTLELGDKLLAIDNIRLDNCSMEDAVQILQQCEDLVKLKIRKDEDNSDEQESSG
# T5: HTRA3, P83110
# T5 sequence (P83110 354-453, limits assumed, looked up): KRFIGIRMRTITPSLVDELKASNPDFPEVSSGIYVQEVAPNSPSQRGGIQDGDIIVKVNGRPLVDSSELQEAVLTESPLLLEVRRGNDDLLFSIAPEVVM
# T6: LNX2_3, Q8N448
# T6 sequence (Q8N448 463-564, limits assumed, looked up): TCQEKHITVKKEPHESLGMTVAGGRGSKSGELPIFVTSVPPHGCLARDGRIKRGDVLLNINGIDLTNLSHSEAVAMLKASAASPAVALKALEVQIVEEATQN
# T7: LRRC7, Q96NW7
# T7 sequence (Q96NW7 1440-1537, limits assumed, looked up): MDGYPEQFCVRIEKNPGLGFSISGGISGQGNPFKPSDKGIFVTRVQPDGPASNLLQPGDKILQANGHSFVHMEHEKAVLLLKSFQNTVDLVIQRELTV
# T8: MPP7, Q5T2T1
# T8 sequence (Q5T2T1 134-230, limits assumed, looked up): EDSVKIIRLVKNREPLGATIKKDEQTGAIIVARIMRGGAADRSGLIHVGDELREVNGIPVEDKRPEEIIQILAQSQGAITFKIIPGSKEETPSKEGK
# T9: SNTB1, Q13884
# T9 sequence (Q13884 107-205, limits assumed, looked up): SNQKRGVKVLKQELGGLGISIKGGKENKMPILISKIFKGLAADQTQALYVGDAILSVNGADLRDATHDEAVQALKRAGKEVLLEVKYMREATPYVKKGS
# T10: TJP3_3, O95049
# T10 sequence (O95049 375-456, limits assumed, looked up): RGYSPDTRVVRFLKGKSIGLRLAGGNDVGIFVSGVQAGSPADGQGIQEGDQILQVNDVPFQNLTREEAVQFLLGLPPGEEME
# Tests used:
# Assay in all cases: holdup assay
# Design in all cases: key: below the threshold = too weak to quantify, mostly under pKd 3.1 to 4
# [1] = biological target: T1, APBA3_1, O96018
# [2] = biological target: T2, CARD11, Q9BXL7
# [3] = biological target: DLG2_2, Q15700
# [4] = biological target: DLG4_3, P78352
# [5] = biological target: T3, DVL3, Q92997
# [6] = biological target: FRMPD3, Q5JV73
# [7] = biological target: GOPC, Q9HD26
# [8] = biological target: GORASP2, Q9H8Y8
# [9] = biological target: T4, GRIP1_5, Q9Y3R0
# [10] = biological target: GRIP2_4, Q9C0E4
# [11] = biological target: GRIP2_6, Q9C0E4
# [12] = biological target: HTRA1, Q92743
# [13] = biological target: HTRA2, O43464
# [14] = biological target: T5, HTRA3, P83110
# [15] = biological target: Inadl_6, Q8NI35
# [16] = biological target: LAP2, Q96RT1
# [17] = biological target: LNX1_1, Q8TBB1
# [18] = biological target: LNX1_2, Q8TBB1
# [19] = biological target: T6, LNX2_3, Q8N448
# [20] = biological target: T7, LRRC7, Q96NW7
# [21] = biological target: MAGI3_2, Q5TCQ9
# [22] = biological target: T8, MPP7, Q5T2T1
# [23] = biological target: NHERF4_1, Q86UT5-2
# [24] = biological target: PDZRN4_1, Q6ZMN7
# [25] = biological target: T9, SNTB1, Q13884
# [26] = biological target: TJP1_3, Q07157
# [27] = biological target: T10, TJP3_3, O95049
# [28] = plain residues with an end cap or a label only (N-terminal biotin on a linker: none)
# [29] = plain residues with an end cap or a label only (N-terminal biotin on a linker: ttds)
# [30] = plain residues with an end cap or a label only (N-terminal biotin on a linker: ahx)
# Sequence of LNX1_2, Q8TBB1 (Q8TBB1 371-470): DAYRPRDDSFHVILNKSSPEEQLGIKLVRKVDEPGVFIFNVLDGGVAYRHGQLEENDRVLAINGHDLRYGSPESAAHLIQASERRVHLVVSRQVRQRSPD
# Sequence of DLG2_2, Q15700 (Q15700 189-283): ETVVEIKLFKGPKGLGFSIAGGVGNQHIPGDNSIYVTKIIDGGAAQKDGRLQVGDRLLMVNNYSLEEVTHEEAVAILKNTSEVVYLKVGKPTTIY
# Sequence of GRIP2_4, Q9C0E4 (Q9C0E4 446-548): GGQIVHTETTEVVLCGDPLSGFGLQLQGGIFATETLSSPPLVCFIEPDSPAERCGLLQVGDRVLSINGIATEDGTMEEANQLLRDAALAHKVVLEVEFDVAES
# Sequence of HTRA2, O43464 (O43464 355-458): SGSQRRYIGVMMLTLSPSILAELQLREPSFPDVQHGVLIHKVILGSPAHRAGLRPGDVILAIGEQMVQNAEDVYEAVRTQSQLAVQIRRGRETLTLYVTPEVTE
# Sequence of Inadl_6, Q8NI35 (Q8NI35 1058-1167): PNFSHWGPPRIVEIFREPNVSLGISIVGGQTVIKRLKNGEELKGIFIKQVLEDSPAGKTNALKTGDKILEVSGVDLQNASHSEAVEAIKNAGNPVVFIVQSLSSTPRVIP
# Sequence of LAP2, Q96RT1 (Q96RT1 other isoform, or with tags, fused parts or gaps): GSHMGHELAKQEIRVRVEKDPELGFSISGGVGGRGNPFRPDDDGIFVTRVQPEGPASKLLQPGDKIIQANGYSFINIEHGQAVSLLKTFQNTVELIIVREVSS
# Sequence of LNX1_1, Q8TBB1 (Q8TBB1 261-371): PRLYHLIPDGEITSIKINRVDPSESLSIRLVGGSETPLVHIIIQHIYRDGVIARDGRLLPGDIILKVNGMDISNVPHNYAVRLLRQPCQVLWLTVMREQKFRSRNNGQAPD
# Sequence of HTRA1, Q92743 (Q92743 360-477): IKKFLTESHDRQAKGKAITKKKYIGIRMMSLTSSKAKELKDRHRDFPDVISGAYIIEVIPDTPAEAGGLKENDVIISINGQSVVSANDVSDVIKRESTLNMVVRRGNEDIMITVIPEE
# Sequence of DLG4_3, P78352 (P78352 306-403): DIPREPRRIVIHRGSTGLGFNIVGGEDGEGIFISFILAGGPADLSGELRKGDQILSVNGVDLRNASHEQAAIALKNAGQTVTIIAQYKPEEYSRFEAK
# Sequence of TJP1_3, Q07157 (Q07157 416-512): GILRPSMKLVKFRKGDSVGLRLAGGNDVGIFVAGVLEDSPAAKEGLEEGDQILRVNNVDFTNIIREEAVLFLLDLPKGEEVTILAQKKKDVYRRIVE
# Sequence of NHERF4_1, Q86UT5-2 (Q86UT5 other isoform, or with tags, fused parts or gaps): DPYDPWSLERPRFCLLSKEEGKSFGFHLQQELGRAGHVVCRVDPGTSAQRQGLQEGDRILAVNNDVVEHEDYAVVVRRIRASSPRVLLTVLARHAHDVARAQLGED
# Sequence of FRMPD3, Q5JV73 (Q5JV73 12-100): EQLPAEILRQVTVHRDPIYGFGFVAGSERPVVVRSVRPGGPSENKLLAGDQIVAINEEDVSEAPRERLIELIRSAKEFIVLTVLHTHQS
# Sequence of MAGI3_2, Q5TCQ9 (Q5TCQ9 398-503): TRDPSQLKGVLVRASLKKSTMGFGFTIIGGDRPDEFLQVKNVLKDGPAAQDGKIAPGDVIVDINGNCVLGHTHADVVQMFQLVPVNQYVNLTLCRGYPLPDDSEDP
# Sequence of GRIP2_6, Q9C0E4 (Q9C0E4 648-740): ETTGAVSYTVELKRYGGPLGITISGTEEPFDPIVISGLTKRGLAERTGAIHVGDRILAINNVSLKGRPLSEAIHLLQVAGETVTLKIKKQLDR
# Sequence of PDZRN4_1, Q6ZMN7 (Q6ZMN7 213-318): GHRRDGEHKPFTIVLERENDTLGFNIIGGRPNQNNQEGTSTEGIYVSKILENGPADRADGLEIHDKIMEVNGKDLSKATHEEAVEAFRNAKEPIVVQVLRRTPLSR
binder,measurement,setting,value
"NLNSSRVPDLLV [SARS-CoV2-E, P0DTC4]",pKd,[1]; [28],below the threshold
same,pKd,[2]; [28],below the threshold
same,pKd,[3]; [28],below the threshold
same,pKd,[4]; [28],below the threshold
same,pKd,[5]; [28],below the threshold
same,pKd,[6]; [28],below the threshold
same,pKd,[7]; [28],below the threshold
same,pKd,[8]; [28],below the threshold
same,pKd,[9]; [28],below the threshold
same,pKd,[10]; [28],below the threshold
same,pKd,[11]; [28],below the threshold
same,pKd,[12]; [28],4.32
same,pKd,[13]; [28],below the threshold
same,pKd,[14]; [28],3.63
same,pKd,[15]; [28],below the threshold
same,pKd,[16]; [28],below the threshold
same,pKd,[17]; [28],below the threshold
same,pKd,[18]; [28],3.81
same,pKd,[19]; [28],below the threshold
same,pKd,[20]; [28],below the threshold
same,pKd,[21]; [28],below the threshold
same,pKd,[22]; [28],below the threshold
same,pKd,[23]; [28],below the threshold
same,pKd,[24]; [28],below the threshold
same,pKd,[25]; [28],below the threshold
same,pKd,[26]; [28],below the threshold
same,pKd,[27]; [28],below the threshold
"PVRVCEETSL [OTULIN, Q96BN8]",pKd,[1]; [29],3.51
same,pKd,[2]; [29],3.59
same,pKd,[3]; [29],3.87
same,pKd,[4]; [29],3.96
same,pKd,[5]; [29],below the threshold
same,pKd,[6]; [29],3.81
same,pKd,[7]; [29],4.44
same,pKd,[8]; [29],below the threshold
same,pKd,[9]; [29],3.78
same,pKd,[10]; [29],3.53
same,pKd,[11]; [29],3.53
same,pKd,[12]; [29],4.04
same,pKd,[13]; [29],below the threshold
same,pKd,[14]; [29],below the threshold
same,pKd,[15]; [29],4.4
same,pKd,[16]; [29],4.18
same,pKd,[17]; [29],below the threshold
same,pKd,[18]; [29],below the threshold
same,pKd,[19]; [29],below the threshold
same,pKd,[20]; [29],below the threshold
same,pKd,[21]; [29],3.71
same,pKd,[22]; [29],below the threshold
same,pKd,[23]; [29],4.02
same,pKd,[24]; [29],5.23
same,pKd,[25]; [29],4.61
same,pKd,[26]; [29],below the threshold
same,pKd,[27]; [29],below the threshold
"SGSRPSATVV [HPV73-E6, Q82005]",pKd,[1]; [29],below the threshold
same,pKd,[2]; [29],below the threshold
same,pKd,[3]; [29],4.03
same,pKd,[4]; [29],below the threshold
same,pKd,[5]; [29],3.5
same,pKd,[6]; [29],below the threshold
same,pKd,[7]; [29],3.59
same,pKd,[8]; [29],4.13
same,pKd,[9]; [29],below the threshold
same,pKd,[10]; [29],3.55
same,pKd,[11]; [29],below the threshold
same,pKd,[12]; [29],3.9
same,pKd,[13]; [29],below the threshold
same,pKd,[14]; [29],3.7
same,pKd,[15]; [29],below the threshold
same,pKd,[16]; [29],below the threshold
same,pKd,[17]; [29],3.74
same,pKd,[18]; [29],4.06
same,pKd,[19]; [29],below the threshold
same,pKd,[20]; [29],3.54
same,pKd,[21]; [29],4.91
same,pKd,[22]; [29],below the threshold
same,pKd,[23]; [29],below the threshold
same,pKd,[24]; [29],below the threshold
same,pKd,[25]; [29],below the threshold
same,pKd,[26]; [29],below the threshold
same,pKd,[27]; [29],below the threshold
"TVICWPGSLV [LNX2, Q8N448]",pKd,[1]; [30],below the threshold
same,pKd,[2]; [30],below the threshold
same,pKd,[3]; [30],3.9
same,pKd,[4]; [30],3.58
same,pKd,[5]; [30],3.99
same,pKd,[6]; [30],below the threshold
same,pKd,[7]; [30],4.33
same,pKd,[8]; [30],4.55
same,pKd,[9]; [30],below the threshold
same,pKd,[10]; [30],below the threshold
same,pKd,[11]; [30],below the threshold
same,pKd,[12]; [30],4.94
same,pKd,[13]; [30],4.42
same,pKd,[14]; [30],3.85
same,pKd,[15]; [30],3.55
same,pKd,[16]; [30],3.86
same,pKd,[17]; [30],4.79
same,pKd,[18]; [30],3.99
same,pKd,[19]; [30],3.65
same,pKd,[20]; [30],below the threshold
same,pKd,[21]; [30],4.58
same,pKd,[22]; [30],below the threshold
same,pKd,[23]; [30],3.55
same,pKd,[24]; [30],4.23
same,pKd,[25]; [30],4.1
same,pKd,[26]; [30],below the threshold
same,pKd,[27]; [30],3.5
